Source: the DeepSol protein solubility set

Test: soluble on expression in E. coli; label from the status in PepcDB or PDB records

Sequence	soluble on expression in E. coli
MGSDKIHHHHHHMAKLDDATLAQLFTEARSHNGWNPEPLPESVLRELYALTKFGPTAANGSPARFYFVTSAEAKERLAKLSSGSNGPKIMQAPCTVIIGYDLDFPQTLPKLFPHAPGAKDWFNDPVAKEWCALRNSSLQGGYFMIGARALGLDVGPMSGFDNAAVDAEFFAGTNIKSNFIVSIGHGTDEGLFPRNPRLDFDEAAKIL	not soluble
MLLTNHAKERIAKRLAKKRKIYKIYSTLFSFLKNSIRIEVEDTILFTDGNKTLVATKLDGELLDLGDIVKRVKDIEESYECVFWDKKIAKITKPIKFLQEIPPGKYYFYINKEKKVLYIGTHEPLLALTFRPAKRWERALFYFSLEHHHHHH	not soluble
MGSDKIHHHHHHMRAKAKLYPKEAARLIREKPGVREAVTGATLHFERNRLKAYAEVPIEAWRERAKAVKDHVLTHLDHYLELAERRLRENGVQVHWAETPEDAHRVLREVVARHGVKRAVKAKSMLTEELGVNPLLEALGVEVYETDLGEYLIQLLGEPPSHIVGPAIHLSLEEIQRLFHQRFGTPLDAPPEALAQVARRVLREAFLTAELGISGANFLVAETGTLALMENEGNIRLSTSLPRVHVAFVGIEKLLPRFADLALFLPLAARAATGQRLSTFVSLIQGPAREGEEGPLEVHVVLVDNGRTALLHDPEAWETLRCLRCGACLNACPVYRQTGGHPYGYVYSGPIGAVLDPGLLTLEEAYPLPYASTLCGACLEACPVKIPIPKLLLAWRHRAVEEGLTPSWEHGAMRAFRKVMESPALYRLFSKGLRGLPLPQDLLPLLKAWTEGRGPLKPSPKPFHELWKEVERGG	not soluble
MGKRKSKRKAPTKAKAVMPLDTQFNCPFCNHERVCEVKMDREKNVGYISCRVCSEDFQTNINYLSEPIDVYSDWVDACEQANNA	not soluble
MVPPITSDEFCETSGCFGDSANLHTTLERLKININSDAKKLVDTNGDLKKHQRFLRIAKVTSLRSKDPNTQVGCVIVDKDNCIVSVGYNGFPIGVDDDVFRWDKEDPEDNKHLYVVHAEMNAIINKRCTTLHDCTVYVTLFPCNKCAQMLIQSRVKKVYFLENRDELAFRASKKMLDHARLPYEQIVMPQEAYVIEL	not soluble
MNIREPPDVVIFCELIYGAAITCLKKFFLRDVFKIFITSHKANIDLMDVVIKSFTDSTNSGKLSKAWAHAQNCHTNFYELKNMKKKLKQNILKSVSEMNNIIKKADIDMINNNLKPFLKQMEKLPTKKTVTIGNESFEYNKTASWYN	not soluble
MSLTTELVDWTHEQKCRKAVAALEKNGFTAVYCPSGREAFDYILTEAVDARSIGFGGSLSVVDLQVIDRLREMDKELLIHGLPGLSLEERVAIMRRQLTCDLFLTGTNALTLSGWLVNIDATGNRVASMFFGPRTVIVVAGRNKIVDGGVTEAIARVKEWASPPNARRLSYKTPCATTGFCSDCNSPDRICRITTVIDRNPRLTDLRVLVVNEDMGLLEHHHHHH	soluble
MLYIPQFSIYFCLGYLLLFCKISNAVKQSWEINQELITEANKEHTVFGDMLLTPAQLIRYENSKDSDLSIRGVSIKGSSMNRWSNNIVPYVISPQYSPAQKQILVSSLRYFERVSCFKFVERTTQNDYLFIVPLDGCYSYVGKIGGRQTLSLAADCIADYIIWHEMMHAIGFEHEHQRPDRDSFIRVDYANVIPGQMINFDKLKTSHVEYPDIYDFKSIMHYDGYAFGRVDTARRVRLATMTPLKPGVTLEDNMKFTATDIEKLNRLGQCGARGGQYSNQGVVASTCQDVATAVSCEGNRRRGMCKNPFYKQMMIKSCQKTCRLCSYTRMIDEDDDLTPNTTVKSVKCEDKHPRCDIYSHNGFCTLPFYDDVRYQLCAKTCNLC	not soluble
MAAYKLVLIRHGESAWNLENRFSGWYDADLSPAGHEEAKRGGQALRDAGYEFDICFTSVQKRAIRTLWTVLDAIDQMWLPVVRTWRLNERHYGGLTGLNKAETAAKHGEAQVKIWRRSYDVPPPPMEPDHPFYSNISKDRRYADLTEDQLPSCESLKDTIARALPFWNEEIVPQIKEGKRVLIAAHGNSLRGIVKHLEGLSEEAIMELNLPTGIPIVYELDKNLKPIKPMQFLGDEETVRKAMEAVAAQGKAKK	soluble
MSLFPAELMVVRKAQDGTIRPLMIAPDHVDIAEKVIEIYRSSAGRTRKEISKDIVTIEYGIKNPKIVRGLALIMDRMSTFRNRSRVDSKQLRGFLFQMGPAVSPEERQEKIALAAEHFSVSPQDIEEAIYGDMDSENVLDQCPSITPEHLNRRYNLEQLTTLMYRSKFIEVSGINNWYRFISLIKRQGLVFEAQGNPLMSVRIDGPNSVFNNMERYGSSMARVVERLTAFPGWKLHAEVEIKDRVYSVDLDSSISYYLPETDIEEEEAIPDPVVIGTRVFFPTRIINVHGQDVYVDIVYHMSPEAIKRRDEMIRSSGIKWITAVVGECKKFQGVLCFRNRVDWDAIIAKASEEYPATTDALREEIDRLYPNTEAILDLLDSRSIPLSHLEKIGYRIKWNGILPEIVRSTEGHHHHHH	soluble
MGSDKIHHHHHHMTIQDYMLETPVRMREIISNADSLFNEVKRTNLKKIIITGSGTSYHSGVQVQPYLQNLLDIDVVKMYPFMITEDTFKFDNENTLVVGVSQGGSSYSTYNAMKLAEDKGCKIASMAGCKNALIDEISDYILTVNCGEEKSGAKTKGYYCTKLNLMLLGLQIAREKGIISSEKYNEEINKILDAINRFEAVYKLSKQWIERNKEKLVNSKEIRIIGHSDIYGDTLEAALKLLETMRIPVTGYEFEEFIHGIYNAINSDSTIFILDTGKEPRVTKMIDVLSGWTENVFAIGRDVTENDKNLKIDITDNPYYQTFNFIVPIQLICGEIPTLRGVDPSVPKDTRFHMKLGSKKLNK	not soluble
GMDAGRGAEHDEAVTSDDSASVEVPRRATPADAATVAQMLHDFNTEFGAPTPGTDELASRLSHLLAGEDVVVLLAGEPPTGLAVLSFRPNVWYPGPVAILDELYVRPGRRGHRLGSALLAASCGLVRSRGGALLEINVDGEDTDARRFYEARGFTNTEPNGTEPMLYYYREL	soluble
MAHHHHHHMPQKPLFFIYFFFFQDTPDFGGVDTQTNNNNKKRGFTRDGRGKLAGGDAHSRRDRRMRLRGWGHTAFQTRLNGSRCWGSRGASSASQCVALRSASSSFSMSTSRSPFDAVYVINLNRRPDRWKFILRQLQRAGFREGEYERFTAVDGRAVDIQKAQACGLVSLLGILRLREEESRRIWGMDLNPAAVGCALSHVLLWATIAARRYHRVLVVEDDSLFPHDFQKKYDERMRHVPQDWELVYVSGLDTADQTSQLRVAEGVSRVPQMHRTTNCYVVTHHGARRLLELCLPMTYQLDTMMTMHAVSDPQSGVPHVTSPVCYTLQPPLVVQATRMGSDIQSSNGRDEQEEERARCRAAGWTTD	soluble
MAIIPKNYARLESGYREKALKIYPWVCGRCSREFVYSNLRELTVHHIDHDHTNNPEDGSNWELLCLYCHDHEHSKYTEADQYGTTVIAGEDAQKDVGEAKYNPFADLKAMMNKKK	not soluble
NALHVINMVGTRHATPYGQDICTRFLADLSVLCPNALIVSGLAYGIDIHAHRAALQNHFKTIGVLAHGLDRIYPAEHRKTAVSMLEQGGLLTEFTSGTNPDRQNFVKRNRIVAGMSDATVVIESAAKGGALITAELAESYHRDCFAFPGRCNDEYSIGCNNLIRKNQAVLITSAEDLVKAMGWESSPKTEKT	not soluble
MKRCLAILAFAALLFPALPAYSAPARQPSSNTPPPDIVMHPEYARTIGRLAYVWGWPMVNMLNRNARITKAPHPGLLGGILPAAPRGQVGMLHDYILPAETFVTCPNQDVVYGLGFFSLDTEPVIAQVPDFGDRFWVYALYDHRTNQFGELGKPYRSKPGFYLLVGPNWKGQKPAGVQAIIRSPTALANAIPRIFMDDTDEDRQAIQKKINQVVFYPLKDFDGKMKSLDWQSTADIPNPGADSANAGETRWVVPEEFFNQFGQVLDMVPPLPGEEAMYVQFRSMMDAAAKDPAIKNALVEVAKETEEQVIAPFFQWKHNGKPAGNNWNRSVNNAQTGLDYFNRTGTAKSNMFDNRPNETQYFYTDFDSTGAVLDGGKRYEITFASGQLPPVKGFWSLTLYNKHHLFSPNDLNRYSLGTKNKNLVRGPDGSLTIHVGPTSPGKDKEANWLPSPREPISLYIRAYWGEQAILDGTWKPPAVKKIELEHHHHHH	not soluble
MFDFSKVVDRHGTWCTQWDYVADRFGTADLLPFTISDMDFATAPCIIEALNQRLMHGVFGYSRWKNDEFLAAIAHWFSTQHYTAIDSQTVVYGPSVIYMVSELIRQWSETGEGVVIHTPAYDAFYKAIEGNQRTVMPVALEKQADGWFCDMGKLEAVLAKPECKIMLLCSPQNPTGKVWTCDELEIMADLCERHGVRVISDEIHMDMVWGEQPHIPWSNVARGDWALLTSGSKSFNIPALTGAYGIIENSSSRDAYLSALKGRDGLSSPSVLALTAHIAAYQQGAPWLDALRIYLKDNLTYIADKMNAAFPELNWQIPQSTYLAWLDLRPLNIDDNALQKALIEQEKVAIMPGYTYGEEGRGFVRLNAGCPRSKLEKGVAGLINAIRAVR	soluble
MSLKKYIITLLFCTLFCHLGIAQGLKSVSILGDSYSTFEGYVQPDTNFVWYLKTPPKGRKTDMVSVRNTWWHQFIKENNYRLCVNNSFSGATICHTGYRSEDYSDRSFITRMKALGCPDIIFIFGATNDYWAKSPLGEYKYADWSKKDLYSFRPAMAYMLDTMIDYYPNVEIYFLLNDGLGNEITESVRTICKHYQIDCIELKELDKMSGHPSVKGMKQISEQVKAYMNSRQNEGHHHHHH	not soluble
MPINFHDANNKYTYAQRNAHISWGEMIKGITNIQNKQIIDIGCGGGIYTKELALMGAKSVVGLDFSKEILQAAKENCSGFSNISFIHGDAHSTPYPNDTFDIVISRAVIHHLQDIPTFLREASRILKKNGVLIVQDRTIEDCTIPGSPEHIRGYFFSIFPKLIEIESKRRPKTTTIQKELQKYFLHVFPTQTQWEVRKIHDSVEALLQDLSPRTGRSILYELTDYELSQLLQQVQTALQNVSPIIERDRWTIWSAMKL	not soluble
GSHMIEPNVISVRLFKRKVGGLGFLVKERVSKPPVIISDLIRGGAAEQSGLIQAGDIILAVNDRPLVDLSYDSALEVLRGIASETHVVLILRGPEGFTTHLETTFTGDGTPKTIRVTQPLGPPTKAV	soluble
MWFGEFGGQYVPETLIEPLKELEKAYKRFKDDEEFNRQLNYYLKTWAGRPTPLYYAKRLTEKIGGAKIYLKREDLVHGGAHKTNNAIGQALLAKFMGKTRLIAETGAGQHGVATAMAGALLGMKVDIYMGAEDVERQKMNVFRMKLLGANVIPVNSGSRTLKDAINEALRDWVATFEYTHYLIGSVVGPHPYPTIVRDFQSVIGREAKAQILEAEGQLPDVIVACVGGGSNAMGIFYPFVNDKKVKLVGVEAGGKGLESGKHSASLNAGQVGVFHGMLSYFLQDEEGQIKPTHSIAPGLDYPGVGPEHAYLKKIQRAEYVTVTDEEALKAFHELSRTEGIIPALESAHAVAYAMKLAKEMSRDEIIIVNLSGRGDKDLDIVLKVSGNV	soluble
MIKNILILSSNNTGHGHKSITESLLEQFSHYPDVNVHVIDGFTLAGNFGLRIGKLYGSVTRNAKELWKLVWELSLKKPSLLNDFTEVAIKDNFLKLICNIKPDLILSVHPNFNGSVLNILEDYNIKVPFVTLLADIVSITPLWADPRADYIICPSKESKFKCLEFGVSESKLIETGFPVRQKFLKLEHHHHHH	not soluble
